Experimental data as given in US20230088052A1.
Like-named read-outs stand apart in the source and are kept apart here.

Experiments:
[1] = biological target: his-tagged human IL-4R recombinant protein (h-IL-4R-his) (human) (UniProt P24394); experiment: binding ELISA, human IL-4R-his coated
[2] = biological target: his-tagged human IL-4R recombinant protein (h-IL-4R-his) (human) (UniProt P24394); experiment: Biacore SPR: antibody captured, IL-4R antigen in flow, 1:1 model
[3] = biological target: humanized Fc-tagged human IL-4R recombinant protein (h-IL-4R-Fc) (human) (UniProt P24394); experiment: blocking ELISA: human IL-4R-Fc coated, antibody blocks the binding of IL-4
[4] = biological target: humanized Fc-tagged human IL-4R recombinant protein (h-IL-4R-Fc) (human) (UniProt P24394); experiment: as above; remark: listed apart in the source
[5] = biological target: his-tagged human IL-4R recombinant protein (h-IL-4R-his) (human) (UniProt P24394); experiment: binding ELISA, human IL-4R-his coated; remark: listed apart in the source
[6] = biological target: his-tagged human IL-4R recombinant protein (h-IL-4R-his) (human) (UniProt P24394); experiment: binding ELISA, human IL-4R-his coated; remark: listed apart in the source
[7] = biological target: humanized Fc-tagged human IL-4R recombinant protein (h-IL-4R-Fc) (human) (UniProt P24394); experiment: blocking ELISA of human IL-4/IL-4R

Sequence of Dupilumab (antibody) (VH): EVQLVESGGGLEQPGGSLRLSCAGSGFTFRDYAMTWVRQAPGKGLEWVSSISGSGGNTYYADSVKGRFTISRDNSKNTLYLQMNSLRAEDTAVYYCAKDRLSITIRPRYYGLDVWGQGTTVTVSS
Sequence of Dupilumab (antibody) (VL): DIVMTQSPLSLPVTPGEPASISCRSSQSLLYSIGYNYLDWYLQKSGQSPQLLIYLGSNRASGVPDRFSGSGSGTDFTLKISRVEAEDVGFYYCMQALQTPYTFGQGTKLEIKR

EC50 [1]: 0.0276 µg/mL
Kd [2]: 0.126 nM
IC50 [3]: 0.0521 µg/mL
IC50 [4]: 0.209 µg/mL
EC50 [5]: 0.0558 µg/mL
EC50 [6]: 0.0426 µg/mL
IC50 [7]: 0.156 µg/mL
Substance: Dupilumab (antibody)
